Where two headings read alike, the source gives them in different places. One block for each molecule: values may come before it. Numbered stars: 1 amine (or outer) side, 2 acyl side, 3 side chain; on linkers, the order of the positions; unused ones are H or OH. Square brackets hold non-standard residues; d marks the D form. Dhp = Dehydrophenylalanine, O=C(/C(=C/c1ccccc1)N[*:1])[*:2]; Phe(ol) = N[C@H](CO)Cc1ccccc1; dPse = not defined here; Abu = CC[C@H](N)C(=O)O; Pse = Phenylserine
Key:
[1] = target: T1, CDK4/Cyclin D1 (Homo sapiens, UniProt P24385); test: CDK4/Cyclin D1 kinase assay, phosphorylation of GST-Rb; format: biochemical
T1 construct: made in house; host or cells: CDK4: Sf9 insect cells (baculovirus)
T1 sequence (P24385 whole entry): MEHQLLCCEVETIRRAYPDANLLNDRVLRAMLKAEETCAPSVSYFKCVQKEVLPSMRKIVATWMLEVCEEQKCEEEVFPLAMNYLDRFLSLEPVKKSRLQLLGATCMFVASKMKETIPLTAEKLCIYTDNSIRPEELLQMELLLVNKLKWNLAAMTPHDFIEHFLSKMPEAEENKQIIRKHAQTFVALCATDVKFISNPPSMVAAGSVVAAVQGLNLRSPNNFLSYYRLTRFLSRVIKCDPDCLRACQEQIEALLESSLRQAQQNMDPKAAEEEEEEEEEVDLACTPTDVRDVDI
T1 sequence (P11802 whole entry partner): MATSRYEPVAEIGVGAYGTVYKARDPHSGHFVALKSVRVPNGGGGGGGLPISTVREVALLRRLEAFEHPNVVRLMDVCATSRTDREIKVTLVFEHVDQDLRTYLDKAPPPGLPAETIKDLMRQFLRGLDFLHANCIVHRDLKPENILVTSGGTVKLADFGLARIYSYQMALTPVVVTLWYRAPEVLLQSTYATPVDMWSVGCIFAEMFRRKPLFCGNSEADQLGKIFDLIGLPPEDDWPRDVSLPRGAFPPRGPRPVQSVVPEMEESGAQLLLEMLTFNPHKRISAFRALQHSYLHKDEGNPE
Experimental: (§1) The phosphorylation reaction mixture (total volume 40 μl) consisted of 50 mM HEPES pH 7.4, 20 mM MgCl2, 5 mM EGTA, 2 mM DTT, 20 mM β-glycerophosphate, 2 mM NaF, 1 mM Na3VO4, Protease Inhibitors Cocktail (Sigma, see above), BSA 0.5 mg/ml, 1 μg purified enzyme complex, 10 μl of GST-Rb-Sepharose beads, 100 μM ATP, 0.2 μCi ^32P-ATP. The reaction was carried out for 30 min at 30° C. at constant shaking. At the end of this period 100 μl of 50 mM HEPES, pH 7.4 and 1 mM ATP were added to each well and the total volume was transferred onto GFC filtered plate. The plate was washed 5 times with 200 μl of 50 mM HEPES, pH 7.4 and 1 mM ATP. To each well were added 50 μl scintillant liquid and the radioactivity of the samples was measured on Scintilation counter (Topcount, HP). The IC50 values of different peptides were calculated using GraFit software.
Peptides were synthesized as described above. Cyclin D1 was expressed in E coli BL21(DE3) using PET expression vector and purified from the inclusion bodies. After refolding Cyclin D1 was cross-linked on SulfoLink agarose support (PIERCE). CDK4-6×His was expressed in Sf9 insect cells infected with the appropriate baculovirus construct and purified by metal-affinity chromatography (Quiagen). […] CDK4/Cyclin D1 phosphorilation of Rb was determined by incorporation of radio-labeled phosphate in GST-Rb in 96-well format kinase assay. […] The reaction was carried out for 30 min at 30 C at constant shaking. The GST-Rb-Sepharose beads were washed with 50 mM HEPES and 1 mM ATP and the radioactivity was measured on Scintillation counter (Topcount, HP)

[2] = target: T2, CDK2/Cyclin E (Homo sapiens, UniProt P24864); test: CDK2/Cyclin E kinase assay, phosphorylation of GST-Rb; format: biochemical; conditions: for Kinase Inhibition Cyclin E/CDK2 % Inhibition / Kinase Inhibition Cyclin E/CDK2 IC30: GST-pRb substrate, [ATP] = 100 μM
T2 construct: 6xHis; made in house; host or cells: Sf9 insect cells (baculovirus co-expression)
Experimental: as §1

[3] = target: CDK2/cyclin A (Homo sapiens, UniProt P20248); test: CDK2/cyclin A kinase assay, substrate pRb(773-928); format: biochemical; conditions: for Relative activity Kinase Inhibition: pRb substrate, [ATP] = 100 μM
Description: Reactions were stopped on ice, followed by filtration through p81 filterplates (Whatman Polyfiltronics, Kent, UK).

[4] = target: Cyclin A (Homo sapiens, UniProt P20248); test: Cyclin A binding assay, immobilised biotinyl-Ahx-[…]NH2; conditions: for Cyclin A Binding Maximum Inhibition: at 100 μM, no IC50 given
Chain of Cyclin A (P20248 whole entry): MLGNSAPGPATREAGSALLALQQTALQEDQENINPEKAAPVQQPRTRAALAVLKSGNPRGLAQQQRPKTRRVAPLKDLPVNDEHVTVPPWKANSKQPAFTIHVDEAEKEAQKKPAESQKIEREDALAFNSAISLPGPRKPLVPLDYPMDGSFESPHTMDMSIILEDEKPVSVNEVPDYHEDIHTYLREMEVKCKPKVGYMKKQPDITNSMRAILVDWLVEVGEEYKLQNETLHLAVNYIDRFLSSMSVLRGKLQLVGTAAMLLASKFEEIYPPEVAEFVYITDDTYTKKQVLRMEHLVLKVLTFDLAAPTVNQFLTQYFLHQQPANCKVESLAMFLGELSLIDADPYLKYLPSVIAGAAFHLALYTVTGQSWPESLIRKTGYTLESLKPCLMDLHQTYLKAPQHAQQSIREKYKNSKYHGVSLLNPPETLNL
Experimental: This was added to each well (100 μL). The plate was incubated for 1 h at room temperature with constant shaking. The plate was washed once quickly with TBS/BSA buffer (200 μL), followed by three more washes with TBS/BSA buffer (200 μL) for 5 min each. Serial dilutions of test peptides were prepared in a new plate (50 μL in each well). Cyclin A was diluted to 5 μg/50 μL with TBS/BSA buffer and this was then added to each well (50 μL). The solutions were mixed thoroughly with a pipette (5-6 times), before being incubated for 30 min at room temperature. This reaction mixture was then transferred to the biotinylated peptide: streptavidin-coated plate and incubated for 1 h at room temperature with constant shaking. The plate was washed once quickly with TBS/BSA buffer (200 μL), followed by three more washes with TBS/BSA buffer (200 μL) for 5 min each. The cyclin A antibody (Santa Cruz polyclonal) solution was diluted 1:200 with TBS/BSA buffer and this was then added to each well of the plate (100 μL. The plate was incubated for 1 h at room temperature with constant shaking. The plate was washed once quickly with TBS/BSA buffer (200 μl), followed by three more washes with TBS/BSA buffer (200 μL) for 5 min each. The anti-rabbit secondary antibody (goat anti-rabbit IgG peroxidase conjugate) was diluted 1:10,000 with TBS/BSA and this was then added to each well of the plate (100 μL). The plate was incubated for 1 h at room temperature with constant shaking. The plate was washed once quickly with TBS/BSA buffer (200 μL), followed by three more washes with TBS/BSA buffer (200 μL) for 5 min each. To each well was added the TMB-ELISA reagent (Pierce 1-Step™ Turbo TMB-ELISA; 100 μL) and the plate incubated for 1 min with constant shaking. The reaction was then quenched by the addition of 2 M aqueous H2SO4 (100 μL, each well). The UV absorbance of the each solution was measured spectrophotometrically at 450 nm. IC50 values were calculated from dose-response curves.

[5] = GST-pRb substrate, [ATP] = 100 μM
[6] = relative to H-His-Ala-Lys-Arg-Arg-Leu-Ile-Phe-NH2 (SEQ ID No. 36) = 1, CDK2/cyclin A kinase assay
[7] = relative to SEQ ID No. 36 = 1, competitive cyclin A binding, immobilised biotinyl-Ahx-His-Ala-Lys-Arg-Arg-Leu-Ile-Phe-NH2
[8] = His152 substitutions, relative to H-His-Ala-Lys-Arg-Arg-Leu-Ile-Phe-NH2 (=1)
[9] = Leu157 substitutions, relative to H-His-Ala-Lys-Arg-Arg-Leu-Ile-Phe-NH2 (=1)
[10] = Ile158 substitutions, relative to H-His-Ala-Lys-Arg-Arg-Leu-Ile-Phe-NH2 (=1)
[11] = Arg156 substitutions, relative to H-His-Ala-Lys-Arg-Arg-Leu-Ile-Phe-NH2 (=1)
[12] = Ala153 substitutions, relative to H-His-Ala-Lys-Arg-Arg-Leu-Ile-Phe-NH2 (=1)
[13] = Lys154 substitutions, relative to H-His-Ala-Lys-Arg-Arg-Leu-Ile-Phe-NH2 (=1)
[14] = Arg155 substitutions, relative to H-His-Ala-Lys-Arg-Arg-Leu-Ile-Phe-NH2 (=1)

Molecule: 111 (H-HAKRRLI[dPse]-OH; reading uncertain) [compound 111]
Relative activity Kinase Inhibition [3, 6]: <0.1
Relative activity Cyclin A Binding [4, 7]: 0.1

Molecule: 118 (H-HAKRRLI[Dhp]-OH; not fully specified) [compound 118]
Relative activity Kinase Inhibition [3, 6]: 3.3
Relative activity Cyclin A Binding [4, 7]: 0.2

Molecule: 120 (H-HAKRRLI[Phe(ol)]) [compound 120]
Relative activity Kinase Inhibition [3, 6]: 0.6
Relative activity Cyclin A Binding [4, 7]: 1.0

Molecule: CC(=O)N[C@@H](CCCN=C(N)N)C(=O)N[C@@H](CCCN=C(N)N)C(=O)N[C@@H](CC(C)C)C(=O)N[C@@H](CC(N)=O)C(=O)N[C@@H](Cc1ccccc1)C(N)=O [compound 378]
IC50 [3]: 37.2 µM
IC50 [4]: 8.15 µM

Molecule: H-Ala-Ala-Lys-Arg-Arg-Leu-Ile Phe-NH2 (H-AAKRRLIF-NH2)
Relative activity Kinase Inhibition [3, 8]: 1.8
Relative activity Cyclin A Binding [4, 8]: 2.5

Molecule: H-Dab-Ala-Lys-Arg-Arg-Leu-Ile Phe-NH2 (XAKRRLIF; N-terminal Dab, C-terminal amide)
Relative activity Kinase Inhibition [3, 8]: 5
Relative activity Cyclin A Binding [4, 8]: 0.4

Molecule: H-His Ala-Lys-Arg-Arg-Leu-Val-Phe-NH2 (H-HAKRRLVF-NH2)
Relative activity Kinase Inhibition [3, 10]: 0.8
Relative activity Cyclin A Binding [4, 10]: 1.5

Molecule: H-His Ala-Lys-Arg-Pro-Leu-Ile Phe-NH2 (H-HAKRPLIF-NH2)
Relative activity Kinase Inhibition [3, 11]: <0.1
Relative activity Cyclin A Binding [4, 11]: <0.1

Molecule: H-His-Abu-Lys-Arg-Arg-Leu-Ile Phe-NH2 (H-H[Abu]KRRLIF-NH2; SMILES CC[C@H](NC(=O)[C@@H](N)Cc1c[nH]cn1)C(=O)N[C@@H](CCCCN)C(=O)N[C@@H](CCCNC(=N)N)C(=O)N[C@@H](CCCNC(=N)N)C(=O)N[C@@H](CC(C)C)C(=O)N[C@H](C(=O)N[C@@H](Cc1ccccc1)C(N)=O)[C@@H](C)CC)
Relative activity Kinase Inhibition [3, 12]: 5
Relative activity Cyclin A Binding [4, 12]: 1.3

Molecule: H-His-Ala-Abu-Arg-Arg-Leu-Ile Phe-NH2 (H-HA[Abu]RRLIF-NH2; SMILES CC[C@H](NC(=O)[C@H](C)NC(=O)[C@@H](N)Cc1c[nH]cn1)C(=O)N[C@@H](CCCNC(=N)N)C(=O)N[C@@H](CCCNC(=N)N)C(=O)N[C@@H](CC(C)C)C(=O)N[C@H](C(=O)N[C@@H](Cc1ccccc1)C(N)=O)[C@@H](C)CC)
Relative activity Kinase Inhibition [3, 13]: 0.8
Relative activity Cyclin A Binding [4, 13]: 0.2

Molecule: H-His-Ala-Ala-Arg-Arg-Leu-Ile Phe-NH2 (H-HAARRLIF-NH2)
Relative activity Kinase Inhibition [3, 13]: <0.1
Relative activity Cyclin A Binding [4, 13]: 0.5

Molecule: H-His-Ala-Arg-Arg-Arg-Leu-Ile Phe-NH2 (H-HARRRLIF-NH2)
Relative activity Kinase Inhibition [3, 13]: 5.7
Relative activity Cyclin A Binding [4, 13]: 1.5

Molecule: H-His-Ala-Leu-Arg-Arg-Leu-Ile Phe-NH2 (H-HALRRLIF-NH2)
Relative activity Kinase Inhibition [3, 13]: 0.1
Relative activity Cyclin A Binding [4, 13]: 1.4

Molecule: H-His-Ala-Lys-Ala-Arg-Leu-Ile Phe-NH2 (H-HAKARLIF-NH2)
Relative activity Kinase Inhibition [3, 14]: <0.1
Relative activity Cyclin A Binding [4, 14]: <0.1

Molecule: H-His-Ala-Lys-Arg-Ala-Leu-Ile Phe-NH2 (H-HAKRALIF-NH2)
Relative activity Kinase Inhibition [3, 11]: <0.1
Relative activity Cyclin A Binding [4, 11]: <0.1

Molecule: YHSKRRL
Kinase Inhibition Cyclin D1/CDK4 % Inhibition [1, 5]: 10%
Kinase Inhibition Cyclin E/CDK2 % Inhibition [2]: 30%
Kinase Inhibition Cyclin E/CDK2 IC30 [2]: >200 µM

Molecule: YHSKRRLIFS
Kinase Inhibition Cyclin D1/CDK4 % Inhibition [1, 5]: 70%
Kinase Inhibition Cyclin D1/CDK4 IC30 [1, 5]: 20 ± 1 µM
Kinase Inhibition Cyclin E/CDK2 % Inhibition [2]: 80%
Kinase Inhibition Cyclin E/CDK2 IC30 [2]: 7.3 ± 0.8 µM

Next, values leading:

inhibition at 100 µM [1, 5]: 72%
IC50 ([1]; phosphorylation of pRb, read-out: Kinase Inhibition Cyclin D1/CDK4 IC50): 21 µM
IC50 ([2]; phosphorylation of pRb, read-out: Kinase Inhibition Cyclin E/CDK2 IC50): 3.4 µM
Kinase Inhibition Cyclin A/CDK2 % Inhibition ([3]; phosphorylation of pRb): 80%
IC50 ([3]; phosphorylation of pRb, read-out: Kinase Inhibition Cyclin A/CDK2 IC50): 3.4 µM
Molecule: CC[C@H](C)[C@H](NC(=O)[C@H](CC(C)C)NC(=O)[C@H](CCCNC(=N)N)NC(=O)[C@H](CCCNC(=N)N)NC(=O)[C@H](CCCCN)NC(=O)[C@H](CO)NC(=O)[C@@H](N)Cc1c[nH]cn1)C(=O)N[C@@H](Cc1ccccc1)C(N)=O

Cyclin A Binding Maximum Inhibition [4]: 50(at 100 (μM) %
Molecule: 24 (FYHSKRRLIFS) [compound 24]

Cyclin A Binding Maximum Inhibition [4]: 20(at 100 (μM) %
Molecule: 30 (SKRRLIF) [compound 30]

Relative activity Kinase Inhibition [3, 6]: <0.1
Relative activity Cyclin A Binding [4, 7]: 0.2
Molecule: 110 (H-HAKRRLI[Pse]-OH) [compound 110]

Relative activity Kinase Inhibition [3, 6]: <0.1
Relative activity Cyclin A Binding [4, 7]: <0.1
Molecule: 112 (H-HSKRRLI[Pse]-OH) [compound 112]

Relative activity Kinase Inhibition [3, 6]: <0.1
Relative activity Cyclin A Binding [4, 7]: <0.1
Molecule: 113 (H-HSKRRLI[dPse]-OH; reading uncertain) [compound 113]

Relative activity Kinase Inhibition [3, 9]: 1.5
Relative activity Cyclin A Binding [4, 9]: 0.2
Molecule: H-His Ala-Lys-Arg-Arg-Ile-Ile Phe-NH2 (H-HAKRRIIF-NH2)

Kinase Inhibition Cyclin D1/CDK4 % Inhibition [1, 5]: 15%
Kinase Inhibition Cyclin E/CDK2 % Inhibition [2]: 45%
Kinase Inhibition Cyclin E/CDK2 IC30 [2]: >200 µM
Molecule: YHSKRRLI

Kinase Inhibition Cyclin D1/CDK4 % Inhibition [1, 5]: 70%
Kinase Inhibition Cyclin D1/CDK4 IC30 [1, 5]: 16 ± 1 µM
Kinase Inhibition Cyclin E/CDK2 % Inhibition [2]: 80%
Kinase Inhibition Cyclin E/CDK2 IC30 [2]: 7 ± 2 µM
Molecule: YHSKRRLIF

Kinase Inhibition Cyclin D1/CDK4 % Inhibition [1, 5]: 60%
Kinase Inhibition Cyclin D1/CDK4 IC30 [1, 5]: 45 ± 10 µM
Kinase Inhibition Cyclin E/CDK2 % Inhibition [2]: 80%
Molecule: YHSKRRLIFSKR
